Residue numbers refer to the chain shown, from its start.
Legend:
[1] = biological target: T1, CasX variant 119 (synthetic construct); experiment: cleavage_in_vitro
T1 chain: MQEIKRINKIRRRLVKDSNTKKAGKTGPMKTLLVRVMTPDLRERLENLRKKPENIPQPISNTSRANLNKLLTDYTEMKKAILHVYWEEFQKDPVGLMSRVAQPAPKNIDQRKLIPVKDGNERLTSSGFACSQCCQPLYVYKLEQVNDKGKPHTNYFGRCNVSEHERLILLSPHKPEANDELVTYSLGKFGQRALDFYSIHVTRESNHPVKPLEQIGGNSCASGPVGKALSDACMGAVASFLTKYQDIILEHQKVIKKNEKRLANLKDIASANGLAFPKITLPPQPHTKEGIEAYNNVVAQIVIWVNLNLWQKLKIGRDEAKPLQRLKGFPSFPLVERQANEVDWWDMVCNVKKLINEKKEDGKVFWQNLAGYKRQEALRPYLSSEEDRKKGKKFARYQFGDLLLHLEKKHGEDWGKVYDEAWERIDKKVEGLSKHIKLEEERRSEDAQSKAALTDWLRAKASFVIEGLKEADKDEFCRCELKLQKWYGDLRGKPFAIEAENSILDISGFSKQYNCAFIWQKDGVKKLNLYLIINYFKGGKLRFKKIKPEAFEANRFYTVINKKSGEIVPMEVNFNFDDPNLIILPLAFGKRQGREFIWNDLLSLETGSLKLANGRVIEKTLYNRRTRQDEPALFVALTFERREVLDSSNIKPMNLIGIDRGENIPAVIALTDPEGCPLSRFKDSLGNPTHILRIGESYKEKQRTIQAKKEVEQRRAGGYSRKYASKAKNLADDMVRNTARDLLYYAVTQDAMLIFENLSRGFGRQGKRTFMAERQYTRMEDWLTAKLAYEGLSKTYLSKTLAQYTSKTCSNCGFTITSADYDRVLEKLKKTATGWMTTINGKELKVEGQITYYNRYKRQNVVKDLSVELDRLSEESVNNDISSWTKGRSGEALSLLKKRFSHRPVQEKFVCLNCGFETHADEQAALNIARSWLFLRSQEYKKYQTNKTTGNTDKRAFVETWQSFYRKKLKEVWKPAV

[2] = biological target: T2, CasX variant 438 (synthetic construct); experiment: cleavage_in_vitro
T2 chain: T1 chain with F399L, L404K, I658V, Y856R

B1: gRNA scaffold 174 + spacer 7.37 ; 7.37 TTC PAM target (ssRNA ; dsDNA)
RNA: ACUGGCGCUUUUAUCUGAUUACUUUGAGAGCCAUCACCAGCGACUAUGUCGUAGUGGGUAAAGCUCCCUCUUCGGAGGGAGCAUCAAAGGGGCCGAGAUGUCUCGCUCC
DNA 1: TGAAGCTGACAGCATTCGGGCCGAGATGTCTCGCTCCGTGGCCTTAGCTGTGCTCGCGCT
DNA 2: AGCGCGAGCACAGCTAAGGCCACGGAGCGAGACATCTCGGCCCGAATGCTGTCAGCTTCA
**Q.** How did the activity [1] turn out when B1 was run?
**A.** 8.33 min⁻¹

**Q.** And the activity [2]?
**A.** 4.94 min⁻¹

Reference: patent US20240360474 (Scribe Therapeutics Inc., published 2024)
